Each block holds one binder with its values, some of them ahead of it.
Columns and labels:
[1] = target: T1, RAS G12V mutant (KRAS G12V) peptide on HLA-DPB1*03:01 (human); assay: Jurkat-NFAT-Luc; B13 LCL + G12V peptide, 10 µg/ml, 10-fold dilutions, 5 conc.; Emax relative to WT 125%; full-length, on cells
T1 peptide: TEYKLVVVGAVGV
Experimental: (§1) In the above table, those with a higher ratio of TCR Mut RLU/WT RLU were underlined, which were preferred TCR mutants. The Emax and EC50 (Functional Avidity) of these TCR mutants in recognition of the KRAS-G12V antigen peptide were further determined. B13 LCL cells were loaded with different concentrations of G12V antigen peptide (10 μg/ml, 10-fold dilution, 5 concentrations), and co-incubated with Jurkat-NFAT-Luc cells expressing the TCR mutants for 16-24 hours, the fluorescence signal expression was detected by adding ONE Glo Luciferase, and the results were shown in FIG. 8 and the table below.

[2] = target: T1, RAS G12V mutant (KRAS G12V) peptide on …; assay: Jurkat-NFAT-Luc; SW620-DPB + G12V peptide, 10 µg/ml, 10-fold dilutions, 5 conc.; Emax relative to WT 111%; full-length, on cells
Experimental: (§2) In the above table, those with TCR Mut RLU/WT RLU ratio ≥80% were underlined, which were the preferred TCR mutants. The Emax and EC50 (Functional Avidity) of the TCR mutants to recognize the KRAS-G12V antigen peptide were further determined. SW620-DPB cells (SW620 expressing HLA-DPB1*03:01) were loaded with different concentrations of G12V antigen peptide (10 μg/ml, 10-fold dilution, 5 concentrations), and co-incubated with Jurkat-NFAT-Luc cells expressing the TCR mutants for 16-24 hours, and the fluorescence signal expression was detected by adding ONE Glo Luciferase.

[3] = target: T1, RAS G12V mutant (KRAS G12V) peptide on …; assay: Jurkat-NFAT-Luc; SW620-DPB + G12V peptide, 10 µg/ml, 10-fold dilutions, 5 conc.; Emax relative to WT 82%; full-length, on cells
Experimental: as §2

[4] = target: T1, RAS G12V mutant (KRAS G12V) peptide on …; assay: Jurkat-NFAT-Luc + B13 LCL loaded with T15; vs wild-type B13.14.1; mTCRβ 94.90%; full-length, on cells
Experimental: (§3) The TCR mutant (MHC-II binding region) lentiviral vector was transduced into the Jurkat-NFAT-Luc cell line, and B13 LCL cells loaded with KRAS-G12V antigen (RAS G12V-T15 peptide, SEQ ID NO: 5) were used as the antigen-presenting cells. 2×10⁴ TCR-T and 2×10⁴ antigen-loaded B13 LCL cells were co-cultured for 16-24 hours, the fluorescence signal expression was detected by adding ONE Glo Luciferase, and TCR Mut RLU/WT RLU (ratio of RLU signal value of TCR mutant to RLU signal value of wild-type B13.14.1TCR) was calculated.

[5] = target: T1, RAS G12V mutant (KRAS G12V) peptide on …; assay: Jurkat-NFAT-Luc; B13 LCL + G12V peptide, 10 µg/ml, 10-fold dilutions, 5 conc.; Emax relative to WT 256%; full-length, on cells
Experimental: as §1

[6] = target: T1, RAS G12V mutant (KRAS G12V) peptide on …; assay: Jurkat-NFAT-Luc; SW620-DPB + G12V peptide, 10 µg/ml, 10-fold dilutions, 5 conc.; Emax relative to WT 134%; full-length, on cells
Experimental: as §2

[7] = target: T1, RAS G12V mutant (KRAS G12V) peptide on …; assay: Jurkat-NFAT-Luc + B13 LCL loaded with T15; vs wild-type B13.14.1; mTCRβ 95.20%; full-length, on cells
Experimental: as §3

[8] = target: T1, RAS G12V mutant (KRAS G12V) peptide on …; assay: Jurkat-NFAT-Luc; B13 LCL + G12V peptide, 10 µg/ml, 10-fold dilutions, 5 conc.; Emax relative to WT 192%; full-length, on cells
Experimental: as §1

[9] = target: T1, RAS G12V mutant (KRAS G12V) peptide on …; assay: Jurkat-NFAT-Luc; SW620-DPB + G12V peptide, 10 µg/ml, 10-fold dilutions, 5 conc.; Emax relative to WT 106%; full-length, on cells
Experimental: as §2

[10] = target: T1, RAS G12V mutant (KRAS G12V) peptide on …; assay: Jurkat-NFAT-Luc; SW620-DPB + G12V peptide, 10 µg/ml, 10-fold dilutions, 5 conc.; Emax relative to WT 131%; full-length, on cells
Experimental: as §2

[11] = target: T1, RAS G12V mutant (KRAS G12V) peptide on …; assay: Jurkat-NFAT-Luc; SW620-DPB + G12V peptide, 10 µg/ml, 10-fold dilutions, 5 conc.; Emax relative to WT 78%; full-length, on cells
Experimental: as §2

[12] = target: T1, RAS G12V mutant (KRAS G12V) peptide on …; assay: Jurkat-NFAT-Luc + B13 LCL loaded with T15; vs wild-type B13.14.1; mTCRβ 89.00%; full-length, on cells
Experimental: as §3

[13] = target: T1, RAS G12V mutant (KRAS G12V) peptide on …; assay: Jurkat-NFAT-Luc; SW620-DPB + G12V peptide, 10 µg/ml, 10-fold dilutions, 5 conc.; Emax relative to WT 97%; full-length, on cells
Experimental: as §2

[14] = target: T1, RAS G12V mutant (KRAS G12V) peptide on …; assay: Jurkat-NFAT-Luc; B13 LCL + G12V peptide, 10 µg/ml, 10-fold dilutions, 5 conc.; Emax relative to WT 94%; full-length, on cells
Experimental: as §1

[15] = target: T1, RAS G12V mutant (KRAS G12V) peptide on …; assay: Jurkat-NFAT-Luc; SW620-DPB + G12V peptide, 10 µg/ml, 10-fold dilutions, 5 conc.; Emax relative to WT 180%; full-length, on cells
Experimental: as §2

EC50 of peptide [1]: 0.255 µg/mL
B1: B13.14.1 TCR mutant α98G-N (TCR, V domains shown)
Valpha: AQSVAQPEDQVNVAEGNPLTVKCTYSVSGNPYLFWYVQYPNRGLQFLLKYITGDNLVKGSYGFEAEFNKSQTSFHLKKPSALVSDSALYFCAVRDGRNGGNKLTFGTGTQLKVEL
Vbeta: DGGITQSPKYLFRKEGQNVTLSCEQNLNHDAMYWYRQDPGQGLRLIYYSQIVNDFQKGDIAEGYSVSREKKESFPLTVTSAQKNPTAFYLCASSPGQRDNSPLHFGNGTRLTVT

EC50 of peptide [2]: 1.03 µg/mL
B2: B13.14.1 TCR mutant α52T-H (TCR, V domains shown)
Valpha: AQSVAQPEDQVNVAEGNPLTVKCTYSVSGNPYLFWYVQYPNRGLQFLLKYIHGDNLVKGSYGFEAEFNKSQTSFHLKKPSALVSDSALYFCAVRDGRGGGNKLTFGTGTQLKVEL
Vbeta: DGGITQSPKYLFRKEGQNVTLSCEQNLNHDAMYWYRQDPGQGLRLIYYSQIVNDFQKGDIAEGYSVSREKKESFPLTVTSAQKNPTAFYLCASSPGQRDNSPLHFGNGTRLTVT

EC50 of peptide [3]: 0.96 µg/mL
TCR Mut RLU/WT RLU [4]: 119%
B3: B13.14.1 TCR mutant α49K-Y (TCR, V domains shown)
Valpha: AQSVAQPEDQVNVAEGNPLTVKCTYSVSGNPYLFWYVQYPNRGLQFLLYYITGDNLVKGSYGFEAEFNKSQTSFHLKKPSALVSDSALYFCAVRDGRGGGNKLTFGTGTQLKVEL
Vbeta: DGGITQSPKYLFRKEGQNVTLSCEQNLNHDAMYWYRQDPGQGLRLIYYSQIVNDFQKGDIAEGYSVSREKKESFPLTVTSAQKNPTAFYLCASSPGQRDNSPLHFGNGTRLTVT

EC50 of peptide [5]: 0.204 µg/mL
B4: B13.14.1 TCR mutant β95P-A (TCR, V domains shown)
Valpha: AQSVAQPEDQVNVAEGNPLTVKCTYSVSGNPYLFWYVQYPNRGLQFLLKYITGDNLVKGSYGFEAEFNKSQTSFHLKKPSALVSDSALYFCAVRDGRGGGNKLTFGTGTQLKVEL
Vbeta: DGGITQSPKYLFRKEGQNVTLSCEQNLNHDAMYWYRQDPGQGLRLIYYSQIVNDFQKGDIAEGYSVSREKKESFPLTVTSAQKNPTAFYLCASSAGQRDNSPLHFGNGTRLTVT

EC50 of peptide [6]: 1.24 µg/mL
TCR Mut RLU/WT RLU [7]: 129%
B5: B13.14.1 TCR mutant α51I-W (TCR, V domains shown)
Valpha: AQSVAQPEDQVNVAEGNPLTVKCTYSVSGNPYLFWYVQYPNRGLQFLLKYWTGDNLVKGSYGFEAEFNKSQTSFHLKKPSALVSDSALYFCAVRDGRGGGNKLTFGTGTQLKVEL
Vbeta: DGGITQSPKYLFRKEGQNVTLSCEQNLNHDAMYWYRQDPGQGLRLIYYSQIVNDFQKGDIAEGYSVSREKKESFPLTVTSAQKNPTAFYLCASSPGQRDNSPLHFGNGTRLTVT

EC50 of peptide [8]: 0.123 µg/mL
B6: B13.14.1 TCR mutant β97Q-S (TCR, V domains shown)
Valpha: AQSVAQPEDQVNVAEGNPLTVKCTYSVSGNPYLFWYVQYPNRGLQFLLKYITGDNLVKGSYGFEAEFNKSQTSFHLKKPSALVSDSALYFCAVRDGRGGGNKLTFGTGTQLKVEL
Vbeta: DGGITQSPKYLFRKEGQNVTLSCEQNLNHDAMYWYRQDPGQGLRLIYYSQIVNDFQKGDIAEGYSVSREKKESFPLTVTSAQKNPTAFYLCASSPGSRDNSPLHFGNGTRLTVT

EC50 of peptide [9]: 1.21 µg/mL
B7: B13.14.1 TCR mutant α49K-S (TCR, V domains shown)
Valpha: AQSVAQPEDQVNVAEGNPLTVKCTYSVSGNPYLFWYVQYPNRGLQFLLSYITGDNLVKGSYGFEAEFNKSQTSFHLKKPSALVSDSALYFCAVRDGRGGGNKLTFGTGTQLKVEL
Vbeta: DGGITQSPKYLFRKEGQNVTLSCEQNLNHDAMYWYRQDPGQGLRLIYYSQIVNDFQKGDIAEGYSVSREKKESFPLTVTSAQKNPTAFYLCASSPGQRDNSPLHFGNGTRLTVT

EC50 of peptide [10]: 1.56 µg/mL
B8: B13.14.1 TCR mutant α52T-A (TCR, V domains shown)
Valpha: AQSVAQPEDQVNVAEGNPLTVKCTYSVSGNPYLFWYVQYPNRGLQFLLKYIAGDNLVKGSYGFEAEFNKSQTSFHLKKPSALVSDSALYFCAVRDGRGGGNKLTFGTGTQLKVEL
Vbeta: DGGITQSPKYLFRKEGQNVTLSCEQNLNHDAMYWYRQDPGQGLRLIYYSQIVNDFQKGDIAEGYSVSREKKESFPLTVTSAQKNPTAFYLCASSPGQRDNSPLHFGNGTRLTVT

EC50 of peptide [11]: 1.34 µg/mL
TCR Mut RLU/WT RLU [12]: 101%
B9: B13.14.1 TCR mutant β50Q-T (TCR, V domains shown)
Valpha: AQSVAQPEDQVNVAEGNPLTVKCTYSVSGNPYLFWYVQYPNRGLQFLLKYITGDNLVKGSYGFEAEFNKSQTSFHLKKPSALVSDSALYFCAVRDGRGGGNKLTFGTGTQLKVEL
Vbeta: DGGITQSPKYLFRKEGQNVTLSCEQNLNHDAMYWYRQDPGQGLRLIYYSTIVNDFQKGDIAEGYSVSREKKESFPLTVTSAQKNPTAFYLCASSPGQRDNSPLHFGNGTRLTVT

EC50 of peptide [13]: 1.19 µg/mL
B10: B13.14.1 TCR mutant β50Q-N (TCR, V domains shown)
Valpha: AQSVAQPEDQVNVAEGNPLTVKCTYSVSGNPYLFWYVQYPNRGLQFLLKYITGDNLVKGSYGFEAEFNKSQTSFHLKKPSALVSDSALYFCAVRDGRGGGNKLTFGTGTQLKVEL
Vbeta: DGGITQSPKYLFRKEGQNVTLSCEQNLNHDAMYWYRQDPGQGLRLIYYSNIVNDFQKGDIAEGYSVSREKKESFPLTVTSAQKNPTAFYLCASSPGQRDNSPLHFGNGTRLTVT

EC50 of peptide [14]: 0.325 µg/mL
B11: B13.14.1 TCR mutant β95P-T (TCR, V domains shown)
Valpha: AQSVAQPEDQVNVAEGNPLTVKCTYSVSGNPYLFWYVQYPNRGLQFLLKYITGDNLVKGSYGFEAEFNKSQTSFHLKKPSALVSDSALYFCAVRDGRGGGNKLTFGTGTQLKVEL
Vbeta: DGGITQSPKYLFRKEGQNVTLSCEQNLNHDAMYWYRQDPGQGLRLIYYSQIVNDFQKGDIAEGYSVSREKKESFPLTVTSAQKNPTAFYLCASSTGQRDNSPLHFGNGTRLTVT

EC50 of peptide [15]: 9.51 µg/mL
B12: B13.14.1 TCR mutant β48Y-F (TCR, V domains shown)
Valpha: AQSVAQPEDQVNVAEGNPLTVKCTYSVSGNPYLFWYVQYPNRGLQFLLKYITGDNLVKGSYGFEAEFNKSQTSFHLKKPSALVSDSALYFCAVRDGRGGGNKLTFGTGTQLKVEL
Vbeta: DGGITQSPKYLFRKEGQNVTLSCEQNLNHDAMYWYRQDPGQGLRLIYFSQIVNDFQKGDIAEGYSVSREKKESFPLTVTSAQKNPTAFYLCASSPGQRDNSPLHFGNGTRLTVT

— patent US20240000834A1, “RAS MUTANT EPITOPE PEPTIDE AND T CELL RECEPTOR RECOGNIZING RAS MUTANT” (SHANGHAI GENBASE BIOTECHNOLOGY CO., LTD., priority 2020, published 2024)
